In assay [1] the target is T1, UAP56 (human, UniProt Q13838 1-428). Put plainly: AMP-PNP.
The target in assay [2] is T1, UAP56. Put plainly: RNA + AMP-PNP.
Assay [3] addresses T1, UAP56. Put plainly: AMP-PNP. This is another data set of the same source.
In assay [4] the target is T1, UAP56. Put plainly: RNA + AMP-PNP. The source holds these as a separate data set.
Assay [5] addresses T1, UAP56.

Read-outs that look alike come from different tables or passages of the source. Where no end group is shown, it is not given here.

In general, koff refers to a measure of how fast the partners let go of each other. For orientation: Kd means the constant that tells how readily two partners part at equilibrium. On to SISRKSEDDEKLKKRKERFGIVTS (also: biotinylated, site not given here) [SARNP UCM-4 peptide, biotinylated], for which the off-rate (koff) with UAP56 [1] is 0.83 s⁻¹; with UAP56 [2] it was 1.68 s⁻¹; with UAP56 [5], 1.39 s⁻¹. Also, the Kd with UAP56 [3] was found to be 11 µM; in the assay with UAP56 [4], 12 µM.
On to VDVAAEKKVVKITSEIPQTERMQKRAERFNVPVS (also: biotinylated, site not given here) [SARNP UCM-1 peptide, biotinylated], for which the off-rate (koff) with UAP56 [2] came out at 2.67 s⁻¹; with UAP56 [5], 3.44 s⁻¹. For the same molecule, the Kd with UAP56 [3] was determined as 12 µM; in the assay with UAP56 [4] it was 13 µM.

Values taken from publication PMC12823420 (2024).
